In publication PMC9332313, “Folding and Binding Mechanisms of the SH2 Domain from Crkl” (Biomolecules, 2022) one finds pKa and koff data, which are given here for two substances.

The target of one data set is His60 (UniProt position 60, NSRVSHYIINS). Description: kinetics (stopped-flow fluorescence binding and displacement). The conditions noted are these: 283 K; 0.5 M NaCl plus 50 mM buffer; 50 mM sodium-acetate pH 5.0 and 5.5; 50 mM BisTRIS pH 6.0 and 6.8; 50 mM sodium-HEPES pH 7.5; 50 mM TrisHCl pH 8.0, 8.5 and 9.0; Binding reaction with dansyl-Pax112-123 phosphopeptide. The pKa comes from both association and dissociation rate constants, so no free or bound state is specified.

Data set [1] deals with dansylated Pax_(112–123) peptide (Dans-GEEEHV-pY-SFPNK). Put plainly: stopped-flow fluorescence displacement kinetics (FRET); complex of 2 µM H60A mutant and 20 µM dansyl-Pax112-123 mixed with excess non-dansylated Pax112-123 (40 μM); 283 K; pH 7.5.
The target is the same in data set [2]. Put plainly: stopped-flow fluorescence displacement kinetics (FRET); complex of 2 µM H60A mutant and 20 µM dansyl-Pax112-123 mixed with excess non-dansylated Pax112-123 (40 μM); 283 K; pH 5.5.
The target is the same in data set [3]. Description: stopped-flow fluorescence displacement kinetics (FRET); complex of 2 µM H60A mutant and 20 µM dansyl-Pax112-123 mixed with excess non-dansylated Pax112-123 (40 μM); 283 K; pH 6.8.

For “Crk-like protein (Crkl) SH2 domain (Homo sapiens (inferred; not stated in the article))”, the pKa with His60 is listed as 7.1 ± 0.2.
In the case of “SH2 domain of Crkl protein (residues 1-111), H60A variant (from UniProt P46109 1-111) (domain or fragment)”, the results for the koff in data set [1], in data set [2] and in data set [3] were 237 s⁻¹, 212 s⁻¹ and 152 s⁻¹, respectively.
